Data as given in the supplement of paper PMC7877785.
± gives the uncertainty stated by the source.

Assay: self-splicing fitness, log relative to wild type (ln ratio); higher = more splicing; Tetrahymena group I intron in knt gene, E. coli kanamycin selection, DiMSum; sequences stand for … in CUCUCU…GGAGGGAAAAGUUAUCAGGCAUGCACCUGGUAGCUAGUCUUUAAACCAAUAGAUUGCAUCGGUUUAAAAGGCAAGACCGUCAAAUUGCGGGAAAGGGGUCAACAGCCGUUCAGUACCAAGUCUCAGGGGAAACUUUGAGAUGGCCUUGCAAAGGGUAUGGUAAUAAGCUGACGGACAUGGUCCUAACCACGCAGCCAAGUCCUAAGUCAACAGAUCUUCUGUUGAUAUGGAUGCAGUUCACAGACUAAAUGUCGGUCGGGGAAGAUGUAUUCUUCUCAUAAGAUAUAGUCGGACCUCUCCUUAAUGGGAGCUAGCGGAUGAAGUGAUGCAACACUGGAGCCGCUGGGAACUAAUUUGUAUGCGAAAGUAUAUUGAUUAGUUUUGGAGUACUCGUGGUCG
Procedure, shortened: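 Fitness was computed with DiMSum as the error-weighted combination of replicate fold changes, kanamycin versus none, each normalised to wild type. The library randomised all eight intron nucleotides of the P1ex region, with the intron placed in the knt kanamycin-resistance gene on pET-22b(+) in E. coli BL21(DE3). Six replicate transformations were grown overnight at 37°C or 30°C on LB agar with or without 25 μg/mL kanamycin, plus 100 μg/mL carbenicillin, 50 μM IPTG and 0.2% rhamnose. Pooled colonies were amplicon-sequenced on an Illumina HiSeq 2500.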

Sequence	self-splicing fitness (ln) (30 °C)	self-splicing fitness (ln) (37 °C)
GUAUAGCAAUAUUACGAUCG	-1.69 ± 0.33	-0.878 ± 0.31
UUGGAGCAAUAUUACGCUCC	-2.79 ± 0.33	-0.876 ± 0.46
CGCCAGCAAUAUUACGUGAG	-1.37 ± 0.078	-1.25 ± 0.11
GUAGAGCAAUAUUACGUGAA	-1.86 ± 0.17	-1.87 ± 0.2
GUUCAGCAAUAUUACGAGCG	-2.03 ± 0.13	-1.31 ± 0.15
AAGCAGCAAUAUUACGGUCC	-1.17 ± 0.1	-0.771 ± 0.17
AAGGAGCAAUAUUACGUUUG	-3.57 ± 0.42	-2.82 ± 0.23
GUUCAGCAAUAUUACGGACC		-2.8 ± 0.38
CGAGAGCAAUAUUACGUCUG	-1.33 ± 0.24	-1.31 ± 0.17
CGUAAGCAAUAUUACGAAGU	-3.81 ± 0.18	-2.51 ± 0.17
GUGUAGCAAUAUUACGCAGG		-2.3 ± 0.32
UCCAAGCAAUAUUACGGAUA	-2.57 ± 0.13	-1.22 ± 0.089
GUACAGCAAUAUUACGCCCG	-1.85 ± 0.14	-1.38 ± 0.2
CUGUAGCAAUAUUACGUAUG	-0.387 ± 0.11	-0.224 ± 0.16
UUGCAGCAAUAUUACGGAGA	-1.85 ± 0.12	-1.08 ± 0.096
UUGCAGCAAUAUUACGGGCU	-1.6 ± 0.16	-1.17 ± 0.22
CGUCAGCAAUAUUACGGAGU	-3.45 ± 0.17	-2.55 ± 0.18
CGGUAGCAAUAUUACGAAGA	-2.99 ± 0.42	-2.32 ± 0.29
GAGCAGCAAUAUUACGAAGU	-2.87 ± 0.21	-0.867 ± 0.16
CGCCAGCAAUAUUACGGCCG	-2.9 ± 0.14	-0.755 ± 0.18

Sequence	self-splicing fitness (ln) (30 °C)	self-splicing fitness (ln) (37 °C)
GCACAGCAAUAUUACGCGUG	-3.87 ± 0.2	-2.35 ± 0.18
AAUAAGCAAUAUUACGCGCA	-0.438 ± 0.081	-0.0417 ± 0.11
UGAAAGCAAUAUUACGAACA	-0.213 ± 0.064	0.349 ± 0.08
UUAAAGCAAUAUUACGGCUA	0.185 ± 0.091	0.424 ± 0.12
AAAGAGCAAUAUUACGAUCG	-2.55 ± 0.12	-1.29 ± 0.15
UCGAAGCAAUAUUACGGCCA	-1.64 ± 0.16	0.195 ± 0.14
CUAGAGCAAUAUUACGGGGA	-2.35 ± 0.22	-3.06 ± 0.47
AUUGAGCAAUAUUACGUACU	-2.1 ± 0.28	-2.57 ± 0.49
CUGAAGCAAUAUUACGCCGC	-3.17 ± 0.35	
GCAUAGCAAUAUUACGACUU	-0.481 ± 0.078	-0.0367 ± 0.089
AGAGAGCAAUAUUACGUUAA	-3.32 ± 0.25	-2.36 ± 0.24
CGAAAGCAAUAUUACGUAAA	-2.45 ± 0.23	-1.92 ± 0.31
ACAUAGCAAUAUUACGGCGU	-0.355 ± 0.07	0.246 ± 0.081
GAUGAGCAAUAUUACGGAUC	-2.36 ± 0.23	-1.78 ± 0.19
GCGUAGCAAUAUUACGCCCG		0.544 ± 0.44
GAGAAGCAAUAUUACGGGAA	-2.47 ± 0.25	-1.24 ± 0.22
UCGUAGCAAUAUUACGUGCC	-3.73 ± 0.33	-1.13 ± 0.25
CGUAAGCAAUAUUACGCGGA	-3.23 ± 0.19	-1.84 ± 0.16
UUCUAGCAAUAUUACGGGCA	-0.323 ± 0.12	-0.0935 ± 0.12
